In PMC8193015:
Like-named read-outs stand apart in the source and are kept apart here. Ends that are not written are not given here.

Assays:
[1] = target: soluble DR4 (sDR4) recombinant protein (human); experiment: ELISA
[2] = target: “empty” DQ6 (DQA1*01:02/DQB1*06:02) with leucine zippers displayed on yeast as a noncovalent αβ heterodimer (human); experiment: flow cytometry on cells
[3] = target: soluble DQ6 (sDQ6) recombinant protein, CLIP87–101 linker cleaved by thrombin (human); experiment: ELISA
[4] = target: “empty” DQ6 (DQA1*01:02/DQB1*06:02) with leucine zippers displayed on yeast as a noncovalent αβ heterodimer (human); experiment: flow cytometry on cells; remark: listed apart in the source
[5] = target: soluble DQ6 (sDQ6) recombinant protein, CLIP87–101 linker cleaved by thrombin (human); experiment: ELISA; remark: listed apart in the source

HA306–318 peptide, nonbiotinylated gave a %Competition at [competitor]:[indicator] = 10 [1] of 75%.

“HCRT1–15 peptide (from UniProt O43612 1-15)” gave a %Competition [2] greater than 50%.

“HCRT21–35 peptide (from UniProt O43612 21-35)” was tested, and the %Competition [2] was greater than 50%.

“HCRT25–39 peptide (from UniProt O43612 25-39)” was tested, and the %Competition [2] was greater than 50%.

“HCRT53–67 peptide (from UniProt O43612 53-67)” gave a %Competition [2] greater than 50%.

Work on “HCRT57–71 peptide (from UniProt O43612 57-71)” yielded a %Competition [2] greater than 50%.

In the case of “HCRT81–95 peptide (from UniProt O43612 81-95)”, the %Competition [2] is reported as greater than 50%.

“HCRT85–99 peptide (from UniProt O43612 85-99)” gave a %Competition [2] greater than 50%.

In the case of “HCRT89–103 peptide (from UniProt O43612 89-103)”, the %Competition [2] is reported as greater than 75%, the %Competition at [competitor]:[indicator] = 10 [2] is reported as greater than 75% and the %Competition at [competitor]:[indicator] = 100 [3] is reported as greater than 75%.

In the case of “SARS-CoV-2 spike peptide S652–668 (from UniProt P0DTC2 652-668)”, the %Competition at [competitor]:[indicator] = 100 [1] is reported as less than 50%.

Work on “SARS-CoV-2 spike peptide S1058–1074 (from UniProt P0DTC2 1058-1074)” yielded a fold weaker BA than HA306–318 (IC50 normalised to HA306–318) [1] of 20 fold.

MNLPSTKVSWAAV (not fully specified) [HCRT1–13 peptide, nonbiotinylated] showed a %Competition at [competitor]:[indicator] = 10 [4] of 75%, an IC50 [4] of 30 µM and a %Competition at [competitor]:[indicator] = 10 [5] of 75%.
